Source: IntAct's records for PubMed 39009827

B1: Myosin-9 (Homo sapiens), P35579 (parent)
chain: MAQQAADKYLYVDKNFINNPLAQADWAAKKLVWVPSDKSGFEPASLKEEVGEEAIVELVENGKKVKVNKDDIQKMNPPKFSKVEDMAELTCLNEASVLHNLKERYYSGLIYTYSGLFCVVINPYKNLPIYSEEIVEMYKGKKRHEMPPHIYAITDTAYRSMMQDREDQSILCTGESGAGKTENTKKVIQYLAYVASSHKSKKDQGELERQLLQANPILEAFGNAKTVKNDNSSRFGKFIRINFDVNGYIVGANIETYLLEKSRAIRQAKEERTFHIFYYLLSGAGEHLKTDLLLEPYNKYRFLSNGHVTIPGQQDKDMFQETMEAMRIMGIPEEEQMGLLRVISGVLQLGNIVFKKERNTDQASMPDNTAAQKVSHLLGINVTDFTRGILTPRIKVGRDYVQKAQTKEQADFAIEALAKATYERMFRWLVLRINKALDKTKRQGASFIGILDIAGFEIFDLNSFEQLCINYTNEKLQQLFNHTMFILEQEEYQREGIEWNFIDFGLDLQPCIDLIEKPAGPPGILALLDEECWFPKATDKSFVEKVMQEQGTHPKFQKPKQLKDKADFCIIHYAGKVDYKADEWLMKNMDPLNDNIATLLHQSSDKFVSELWKDVDRIIGLDQVAGMSETALPGAFKTRKGMFRTVGQLYKEQLAKLMATLRNTNPNFVRCIIPNHEKKAGKLDPHLVLDQLRCNGVLEGIRICRQGFPNRVVFQEFRQRYEILTPNSIPKGFMDGKQACVLMIKALELDSNLYRIGQSKVFFRAGVLAHLEEERDLKITDVIIGFQACCRGYLARKAFAKRQQQLTAMKVLQRNCAAYLKLRNWQWWRLFTKVKPLLQVSRQEEEMMAKEEELVKVREKQLAAENRLTEMETLQSQLMAEKLQLQEQLQAETELCAEAEELRARLTAKKQELEEICHDLEARVEEEEERCQHLQAEKKKMQQNIQELEEQLEEEESARQKLQLEKVTTEAKLKKLEEEQIILEDQNCKLAKEKKLLEDRIAEFTTNLTEEEEKSKSLAKLKNKHEAMITDLEERLRREEKQRQELEKTRRKLEGDSTDLSDQIAELQAQIAELKMQLAKKEEELQAALARVEEEAAQKNMALKKIRELESQISELQEDLESERASRNKAEKQKRDLGEELEALKTELEDTLDSTAAQQELRSKREQEVNILKKTLEEEAKTHEAQIQEMRQKHSQAVEELAEQLEQTKRVKANLEKAKQTLENERGELANEVKVLLQGKGDSEHKRKKVEAQLQELQVKFNEGERVRTELADKVTKLQVELDNVTGLLSQSDSKSSKLTKDFSALESQLQDTQELLQEENRQKLSLSTKLKQVEDEKNSFREQLEEEEEAKHNLEKQIATLHAQVADMKKKMEDSVGCLETAEEVKRKLQKDLEGLSQRHEEKVAAYDKLEKTKTRLQQELDDLLVDLDHQRQSACNLEKKQKKFDQLLAEEKTISAKYAEERDRAEAEAREKETKALSLARALEEAMEQKAELERLNKQFRTEMEDLMSSKDDVGKSVHELEKSKRALEQQVEEMKTQLEELEDELQATEDAKLRLEVNLQAMKAQFERDLQGRDEQSEEKKKQLVRQVREMEAELEDERKQRSMAVAARKKLEMDLKDLEAHIDSANKNRDEAIKQLRKLQAQMKDCMRELDDTRASREEILAQAKENEKKLKSMEAEMIQLQEELAAAERAKRQAQQERDELADEIANSSGKGALALEEKRRLEARIAQLEEELEEEQGNTELINDRLKKANLQIDQINTDLNLERSHAQKNENARQQLERQNKELKVKLQEMEGTVKSKYKASITALEAKIAQLEEQLDNETKERQAACKQVRRTEKKLKDVLLQVDDERRNAEQYKDQADKASTRLKQLKRQLEEAEEEAQRANASRRKLQRELEDATETADAMNREVSSLKNKLRRGDLPFVVPRRMARKGAGDGSDEEVDGKADGAEAKPAE
partner: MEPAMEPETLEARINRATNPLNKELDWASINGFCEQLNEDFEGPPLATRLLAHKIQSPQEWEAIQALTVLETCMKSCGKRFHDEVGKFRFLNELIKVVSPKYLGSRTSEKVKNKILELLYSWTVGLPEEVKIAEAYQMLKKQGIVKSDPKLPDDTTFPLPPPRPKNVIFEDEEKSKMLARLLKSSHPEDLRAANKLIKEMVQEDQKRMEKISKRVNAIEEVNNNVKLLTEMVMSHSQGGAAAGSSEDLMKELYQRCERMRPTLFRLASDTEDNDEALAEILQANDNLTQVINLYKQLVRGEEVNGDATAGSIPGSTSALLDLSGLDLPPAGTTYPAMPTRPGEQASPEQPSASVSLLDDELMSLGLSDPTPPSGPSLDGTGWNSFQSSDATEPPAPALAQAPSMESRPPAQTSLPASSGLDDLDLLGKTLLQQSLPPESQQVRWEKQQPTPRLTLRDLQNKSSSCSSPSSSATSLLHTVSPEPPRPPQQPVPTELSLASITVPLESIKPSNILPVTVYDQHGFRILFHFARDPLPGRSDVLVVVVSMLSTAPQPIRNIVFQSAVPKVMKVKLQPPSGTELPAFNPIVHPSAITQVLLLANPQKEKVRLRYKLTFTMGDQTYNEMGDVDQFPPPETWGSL
B2: BCL11 transcription factor A (Homo sapiens), Q9H165 (parent)
chain: MSRRKQGKPQHLSKREFSPEPLEAILTDDEPDHGPLGAPEGDHDLLTCGQCQMNFPLGDILIFIEHKRKQCNGSLCLEKAVDKPPSPSPIEMKKASNPVEVGIQVTPEDDDCLSTSSRGICPKQEHIADKLLHWRGLSSPRSAHGALIPTPGMSAEYAPQGICKDEPSSYTCTTCKQPFTSAWFLLQHAQNTHGLRIYLESEHGSPLTPRVGIPSGLGAECPSQPPLHGIHIADNNPFNLLRIPGSVSREASGLAEGRFPPTPPLFSPPPRHHLDPHRIERLGAEEMALATHHPSAFDRVLRLNPMAMEPPAMDFSRRLRELAGNTSSPPLSPGRPSPMQRLLQPFQPGSKPPFLATPPLPPLQSAPPPSQPPVKSKSCEFCGKTFKFQSNLVVHRRSHTGEKPYKCNLCDHACTQASKLKRHMKTHMHKSSPMTVKSDDGLSTASSPEPGTSDLVGSASSALKSVVAKFKSENDPNLIPENGDEEEEEDDEEEEEEEEEEEEELTESERVDYGFGLSLEAARHHENSSRGAVVGVGDESRALPDVMQGMVLSSMQHFSEAFHQVLGEKHKRGHLAEAEGHRDTCDEDSVAGESDRIDDGTVNGRGCSPGESASGGLSKKLLLGSPSSLSPFSKRIKLEKEFDLPPAAMPNTENVYSQWLAGYAASRQLKDPFLSFGDSRQSPFASSSEHSSENGSLRFSTPPGELDGGISGRSGTGSGGSTPHISGPGPGRPSSKEGRRSDTCEYCGKVFKNCSNLTVHRRSHTGERPYKCELCNYACAQSSKLTRHMKTHGQVGKDVYKCEICKMPFSVYSTLEKHMKKWHSDRVLNNDIKTE
partner: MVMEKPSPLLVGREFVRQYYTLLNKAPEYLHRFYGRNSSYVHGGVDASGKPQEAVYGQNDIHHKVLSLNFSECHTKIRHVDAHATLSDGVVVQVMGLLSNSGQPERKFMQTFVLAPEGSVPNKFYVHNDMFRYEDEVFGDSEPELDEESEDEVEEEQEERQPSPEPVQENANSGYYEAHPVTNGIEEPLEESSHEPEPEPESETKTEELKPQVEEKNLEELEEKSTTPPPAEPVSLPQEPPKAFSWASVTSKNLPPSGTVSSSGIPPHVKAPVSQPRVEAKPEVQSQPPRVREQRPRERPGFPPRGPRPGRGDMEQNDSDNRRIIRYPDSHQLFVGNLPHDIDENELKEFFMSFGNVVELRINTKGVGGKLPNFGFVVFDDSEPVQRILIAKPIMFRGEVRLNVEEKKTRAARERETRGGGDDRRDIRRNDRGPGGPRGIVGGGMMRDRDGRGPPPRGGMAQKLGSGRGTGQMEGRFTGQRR
B3: Protein patched homolog 1 (Homo sapiens), Q13635 (parent)
chain: MASAGNAAEPQDRGGGGSGCIGAPGRPAGGGRRRRTGGLRRAAAPDRDYLHRPSYCDAAFALEQISKGKATGRKAPLWLRAKFQRLLFKLGCYIQKNCGKFLVVGLLIFGAFAVGLKAANLETNVEELWVEVGGRVSRELNYTRQKIGEEAMFNPQLMIQTPKEEGANVLTTEALLQHLDSALQASRVHVYMYNRQWKLEHLCYKSGELITETGYMDQIIEYLYPCLIITPLDCFWEGAKLQSGTAYLLGKPPLRWTNFDPLEFLEELKKINYQVDSWEEMLNKAEVGHGYMDRPCLNPADPDCPATAPNKNSTKPLDMALVLNGGCHGLSRKYMHWQEELIVGGTVKNSTGKLVSAHALQTMFQLMTPKQMYEHFKGYEYVSHINWNEDKAAAILEAWQRTYVEVVHQSVAQNSTQKVLSFTTTTLDDILKSFSDVSVIRVASGYLLMLAYACLTMLRWDCSKSQGAVGLAGVLLVALSVAAGLGLCSLIGISFNAATTQVLPFLALGVGVDDVFLLAHAFSETGQNKRIPFEDRTGECLKRTGASVALTSISNVTAFFMAALIPIPALRAFSLQAAVVVVFNFAMVLLIFPAILSMDLYRREDRRLDIFCCFTSPCVSRVIQVEPQAYTDTHDNTRYSPPPPYSSHSFAHETQITMQSTVQLRTEYDPHTHVYYTTAEPRSEISVQPVTVTQDTLSCQSPESTSSTRDLLSQFSDSSLHCLEPPCTKWTLSSFAEKHYAPFLLKPKAKVVVIFLFLGLLGVSLYGTTRVRDGLDLTDIVPRETREYDFIAAQFKYFSFYNMYIVTQKADYPNIQHLLYDLHRSFSNVKYVMLEENKQLPKMWLHYFRDWLQGLQDAFDSDWETGKIMPNNYKNGSDDGVLAYKLLVQTGSRDKPIDISQLTKQRLVDADGIINPSAFYIYLTAWVSNDPVAYAASQANIRPHRPEWVHDKADYMPETRLRIPAAEPIEYAQFPFYLNGLRDTSDFVEAIEKVRTICSNYTSLGLSSYPNGYPFLFWEQYIGLRHWLLLFISVVLACTFLVCAVFLLNPWTAGIIVMVLALMTVELFGMMGLIGIKLSAVPVVILIASVGIGVEFTVHVALAFLTAIGDKNRRAVLALEHMFAPVLDGAVSTLLGVLMLAGSEFDFIVRYFFAVLAILTILGVLNGLVLLPVLLSFFGPYPEVSPANGLNRLPTPSPEPPPSVVRFAMPPGHTHSGSDSSDSEYSSQTTVSGLSEELRHYEAQQGAGGPAHQVIVEATENPVFAHSTVVHPESRHHPPSNPRQQPHLDSGSLPPGRQGQQPRRDPPREGLWPPPYRPRRDAFEISTEGHSGPSNRARWGPRGARSHNPRNPASTAMGSSVPGYCQPITTVTASASVTVAVHPPPVPGPGRNPRGGLCPGYPETDHGLFEDPHVPFHVRCERRDSKVEVIELQDVECEERPRGSSSN
B4: "Poly(A) RNA polymerase, mitochondrial" (Homo sapiens), Q9NVV4 (parent)
chain: MAVPGVGLLTRLNLCARRRTRVQRPIVRLLSCPGTVAKDLRRDEQPSGSVETGFEDKIPKRRFSEMQNERREQAQRTVLIHCPEKISENKFLKYLSQFGPINNHFFYESFGLYAVVEFCQKESIGSLQNGTHTPSTAMETAIPFRSRFFNLKLKNQTSERSRVRSSNQLPRSNKQLFELLCYAESIDDQLNTLLKEFQLTEENTKLRYLTCSLIEDMAAAYFPDCIVRPFGSSVNTFGKLGCDLDMFLDLDETRNLSAHKISGNFLMEFQVKNVPSERIATQKILSVLGECLDHFGPGCVGVQKILNARCPLVRFSHQASGFQCDLTTNNRIALTSSELLYIYGALDSRVRALVFSVRCWARAHSLTSSIPGAWITNFSLTMMVIFFLQRRSPPILPTLDSLKTLADAEDKCVIEGNNCTFVRDLSRIKPSQNTETLELLLKEFFEYFGNFAFDKNSINIRQGREQNKPDSSPLYIQNPFETSLNISKNVSQSQLQKFVDLARESAWILQQEDTDRPSISSNRPWGLVSLLLPSAPNRKSFTKKKSNKFAIETVKNLLESLKGNRTENFTKTSGKRTISTQT

Variants of: B1
Details: with gga1_human GGA1, Q9UJY5

Variant	effect of a mutation on the interaction
D1424H	decreasing interaction strength

Variants of: B2
Details: with G3BP2, Q9UN86

Variant	effect of a mutation on the interaction
C48F	causing an interaction

Variants of: B3
Details: with ppia_human PPIA

Variant	effect of a mutation on the interaction
P1180Q	decreasing interaction strength

Variants of: B4
Details: with eps15_human EPS15, P42566
eps15_human EPS15, P42566, sequence (P42566 whole entry): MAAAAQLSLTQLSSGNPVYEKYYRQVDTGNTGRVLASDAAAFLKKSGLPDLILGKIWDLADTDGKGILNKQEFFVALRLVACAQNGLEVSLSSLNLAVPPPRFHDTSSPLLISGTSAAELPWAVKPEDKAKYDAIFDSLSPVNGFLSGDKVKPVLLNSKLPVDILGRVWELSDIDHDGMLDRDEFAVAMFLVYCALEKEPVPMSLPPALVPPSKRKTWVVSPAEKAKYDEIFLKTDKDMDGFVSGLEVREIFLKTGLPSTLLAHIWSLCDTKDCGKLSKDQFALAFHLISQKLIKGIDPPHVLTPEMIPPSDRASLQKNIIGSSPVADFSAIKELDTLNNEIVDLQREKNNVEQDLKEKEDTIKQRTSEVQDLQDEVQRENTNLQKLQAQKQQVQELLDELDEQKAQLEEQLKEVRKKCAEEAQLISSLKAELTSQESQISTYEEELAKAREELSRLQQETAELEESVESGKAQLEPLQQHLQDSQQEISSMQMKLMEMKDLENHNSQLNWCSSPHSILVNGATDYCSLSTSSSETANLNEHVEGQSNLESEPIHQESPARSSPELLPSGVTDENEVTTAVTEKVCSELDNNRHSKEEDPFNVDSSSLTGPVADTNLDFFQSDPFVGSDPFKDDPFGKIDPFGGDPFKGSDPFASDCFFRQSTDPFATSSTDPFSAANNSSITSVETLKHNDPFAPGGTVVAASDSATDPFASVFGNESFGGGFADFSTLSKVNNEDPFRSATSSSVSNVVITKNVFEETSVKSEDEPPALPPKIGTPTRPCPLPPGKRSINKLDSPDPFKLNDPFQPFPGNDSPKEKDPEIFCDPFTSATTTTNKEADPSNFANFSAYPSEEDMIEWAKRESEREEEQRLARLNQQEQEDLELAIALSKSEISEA

Variant	effect of a mutation on the interaction
MAVPGVGLLTRLNLCARRRTRVQRPIVRLLSCPGTVAKDLRRDEQPSGSVETGFEDKIPKRRFSEMQNERREQAQRTVLIHCPEKISENKFLKYLSQFGPINNHFFYESFGLYAVVEFCQKESIGSLQNGTHTPSTAMETAIPFRSRFFNLKLKNQTSERSRVRSSNQLPRSNKQLFELLCYAESIDDQLNTLLKEFQLTEENTKLRYLTCSLIEDMAAAYFPDCIVRPFGSSVNTFGKLGCDLDMFLDLDETRNLSAHKISGNFLMEFQVKNVPSERIATQKILSVLGECLDHFGPGCVGVQKILNARCPLVRFSHQASGFQCDLTTNNRIALTSSELLYIYGALDSRVRALVFSVRCWARAHSLTSSIPGAWITNFSLTMMVIFFLQRRSPPILPTLDSLKTLADAEDKCVIEGNNCTFVRDLSRIKPSQNTETLELLLKEFFEYFGNFAFDKNSINIRQGREQNKPDSSPLYIQDPFETSLNISKNVSQSQLQKFVDLARESAWILQQEDTDRPSISSNRPWGLVSLLLPSAPNRKSFTKKKSNKFAIETVKNLLESLKGNRTENFTKTSGKRTISTQT [N478D]	decreasing interaction strength
